# Laboratory results as given in patent US20120165503A1 (Merck Sharp & Dohme, published 2012).
# Where “and” joins values, the source holds several entries; their conditions need not be identical. Equal values may be shown once. Read-outs that look alike come from different tables or passages of the source. *1 amine or outer side, *2 acyl side, *3 side chain or, on linkers, in order; H or OH if unused. Bridges are numbered along the chain shown (N, C = ends). Where no end group is shown, it is not given here. Side-chain parts run from the residue outwards. [ ]: non-standard residue; d: D form. The star is where a group is joined. (mPEG)2 40 kDa = C3 = Cys(mPEG)240kDa, branched (mPEG)2, 40 kDa; Oxa12‑cholesterol = C10 = Cys(oxa12-cholesterol); γGlu = O=C(O)[C@H](CCC(=O)[*:2])N[*:1]; oxa12‑cholesterol = not defined here; Palmitoyl = CCCCCCCCCCCCCCCC(=O)*; Met(O) = CS(=O)CC[C@H](N)C(=O)O; Ac4c = NC1(C(=O)O)CCC1; Aib = CC(C)(N)C(=O)O
# Assays:
# Experiment in all cases: cell-based or functional assay
# human glucagon receptor [1] = molecular target: T1, human glucagon receptor (human, UniProt P47871 26-477)
# human GLP-1 receptor [2] = molecular target: T2, human GLP-1 receptor (human, UniProt P43220 24-463)
# human glucagon receptor [3] = molecular target: T1, human glucagon receptor; remark: listed apart in the source
# human GLP-1 receptor [4] = molecular target: T2, human GLP-1 receptor; remark: listed apart in the source
# human glucagon receptor [5] = molecular target: T1, human glucagon receptor; remark: listed apart in the source
# T1 sequence (P47871 26-477): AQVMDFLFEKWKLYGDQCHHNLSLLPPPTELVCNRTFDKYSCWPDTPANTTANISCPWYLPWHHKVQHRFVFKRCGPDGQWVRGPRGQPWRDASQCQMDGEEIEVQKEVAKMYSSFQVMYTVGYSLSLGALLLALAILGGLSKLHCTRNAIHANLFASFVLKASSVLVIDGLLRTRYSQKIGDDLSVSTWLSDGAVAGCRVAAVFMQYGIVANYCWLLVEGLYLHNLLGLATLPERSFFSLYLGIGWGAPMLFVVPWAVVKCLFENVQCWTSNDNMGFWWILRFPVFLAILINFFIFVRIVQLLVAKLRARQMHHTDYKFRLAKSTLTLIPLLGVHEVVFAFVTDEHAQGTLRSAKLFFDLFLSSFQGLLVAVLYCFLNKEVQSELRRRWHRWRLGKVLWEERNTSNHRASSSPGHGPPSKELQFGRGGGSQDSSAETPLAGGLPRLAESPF
Binder,hGCGR + 20% plasma EC50 (human glucagon receptor [1]),hGLP-1R + 20% Plasma EC50 (human GLP-1 receptor [2]) [nM],% Activation of GCGR (human glucagon receptor [3]) [%],GCGR EC50 (human glucagon receptor [3]) [nM],GLP-1R EC50 (human GLP-1 receptor [4]) [nM],further results
HSQGTFTSDYSKYLDSRRAQDFVQWLMNTKEEC (D-Ser at position 2; gamma-glutamic acid at positions 31 and 32; C4 = Cys(cholesterol) at position 33; C-terminal COOH) [OXM345],> 1000 nM,> 1000,–,–,–,hGCGR EC50 (human glucagon receptor [1]): 0.1 nM; hGLP-1R EC50 (human GLP-1 receptor [2]): 5.1 nM
HSQGTFTSDYSKYLDSRRAQDFVQWLMNTKEEC (D-Ser at position 2; gamma-glutamic acid at positions 31 and 32; C7 = Cys(Oxa4-cholesterol) at position 33; C-terminal COOH) [OXM380],3.4 nM,30.7,–,–,–,hGCGR EC50 (human glucagon receptor [1]): 0.1 nM; hGLP-1R EC50 (human GLP-1 receptor [2]): 0.3 nM
HSQGTFTSDYSKYLDSRRAQDFVQWLMNTKEEC (D-Ser at position 2; gamma-glutamic acid at positions 31 and 32; C9 = Cys(mal-oxa12-cholesterol) at position 33; C-terminal COOH) [OXM381],0.8 nM and 0.9 nM,1.9,–,–,–,–
H[dS]QGTFTSDYSKYLDERRAKDFVQWLMNTK[γGlu][γGlu]C(oxa12‑cholesterol)-OH (lactam 16-20; reading uncertain) [OXM392],0.3 nM,3,–,–,–,hGCGR EC50 (human glucagon receptor [1]): 0.03 nM; hGLP-1R EC50 (human GLP-1 receptor [2]): 0.03 nM
H[Aib]QGTFTSDYSKYLDERRAKDFVQWLMNTK[γGlu][γGlu]C(Oxa12‑cholesterol)-OH (lactam 16-20) [OXM395],119 nM,3.3,–,–,–,hGCGR EC50 (human glucagon receptor [1]): 10 nM; hGLP-1R EC50 (human GLP-1 receptor [2]): 0.7 nM
HSQGTFTSDYSKYLDSRRAQDFVQWLMNTKEEC (D-Ser at position 2; gamma-glutamic acid at positions 31 and 32; C10 = Cys(oxa12-cholesterol) at position 33; C-terminal COOH) [OXM399],0.4 nM,5.7,–,–,–,hGCGR EC50 (human glucagon receptor [1]): 0.01 nM; hGLP-1R EC50 (human GLP-1 receptor [2]): 0.05 nM
HSQGTFTSDYSKYLDSRRAQDFVQWLMNTKRNRNNIAC (D-Ser at position 2; C1 = Cys(mPEG)5kDa at position 38; C-terminal amide) [OXM33],–,–,78,75.3,115,–
HXQGTFTSDYSKYLDSRRAQDFVQWLMNTKEEC (Aib at position 2; gamma-glutamic acid at positions 31 and 32; C10 = Cys(oxa12-cholesterol) at position 33; C-terminal COOH) [OXM400],0.8 nM,1.9,–,–,–,hGCGR EC50 (human glucagon receptor [1]): 0.01 nM; hGLP-1R EC50 (human GLP-1 receptor [2]): 0.07 nM
HXQGTFTSDYSKYLDSRRAQDFVQWLMNTKEEC (Acb (1-amino-1-cyclobutane carboxylic acid) at position 2; gamma-glutamic acid at positions 31 and 32; C10 = Cys(oxa12-cholesterol) at position 33; C-terminal COOH) [OXM401],0.3 nM,2.9,–,–,–,hGCGR EC50 (human glucagon receptor [1]): 0.09 nM; hGLP-1R EC50 (human GLP-1 receptor [2]): 0.23 nM
HSQGTFTSDKSKYLDSRRAQDFVQWLMNTK (D-Ser at position 2; Lys(γE-γE-palmitoyl) at position 10; C-terminal amide) [OXM409],0.1 nM,0.7,–,–,–,–
H[dS]QGTFTSDK([γGlu-γGlu-Palmitoyl])SKYLDERRAQDFVQWLMNTK-NH2 (N-terminus assumed; SMILES CCCCCCCCCCCCCCCC(=O)N[C@@H](CCC(=O)N[C@@H](CCC(=O)NCCCC[C@H](NC(=O)[C@H](CC(=O)O)NC(=O)[C@H](CO)NC(=O)[C@@H](NC(=O)[C@H](Cc1ccccc1)NC(=O)[C@@H](NC(=O)CNC(=O)[C@H](CCC(N)=O)NC(=O)[C@@H](CO)NC(=O)[C@@H](N)Cc1c[nH]cn1)[C@@H](C)O)[C@@H](C)O)C(=O)N[C@@H](CO)C(=O)N[C@@H](CCCCN)C(=O)N[C@@H](Cc1ccc(O)cc1)C(=O)N[C@@H](CC(C)C)C(=O)N[C@@H](CC(=O)O)C(=O)N[C@@H](CCC(=O)O)C(=O)N[C@@H](CCCNC(=N)N)C(=O)N[C@@H](CCCNC(=N)N)C(=O)N[C@@H](C)C(=O)N[C@@H](CCC(N)=O)C(=O)N[C@@H](CC(=O)O)C(=O)N[C@@H](Cc1ccccc1)C(=O)N[C@H](C(=O)N[C@@H](CCC(N)=O)C(=O)N[C@@H](Cc1c[nH]c2ccccc12)C(=O)N[C@@H](CC(C)C)C(=O)N[C@@H](CCSC)C(=O)N[C@@H](CC(N)=O)C(=O)N[C@H](C(=O)N[C@@H](CCCCN)C(N)=O)[C@@H](C)O)C(C)C)C(=O)O)C(=O)O) [OXM411],0.2 nM,0.1,–,–,–,–
H[Aib]QGTFTSDK([γGlu-γGlu-Palmitoyl])SKYLDERRAQDFVQWLMNTK-NH2 (N-terminus assumed; SMILES CCCCCCCCCCCCCCCC(=O)N[C@@H](CCC(=O)N[C@@H](CCC(=O)NCCCC[C@H](NC(=O)[C@H](CC(=O)O)NC(=O)[C@H](CO)NC(=O)[C@@H](NC(=O)[C@H](Cc1ccccc1)NC(=O)[C@@H](NC(=O)CNC(=O)[C@H](CCC(N)=O)NC(=O)C(C)(C)NC(=O)[C@@H](N)Cc1c[nH]cn1)[C@@H](C)O)[C@@H](C)O)C(=O)N[C@@H](CO)C(=O)N[C@@H](CCCCN)C(=O)N[C@@H](Cc1ccc(O)cc1)C(=O)N[C@@H](CC(C)C)C(=O)N[C@@H](CC(=O)O)C(=O)N[C@@H](CCC(=O)O)C(=O)N[C@@H](CCCNC(=N)N)C(=O)N[C@@H](CCCNC(=N)N)C(=O)N[C@@H](C)C(=O)N[C@@H](CCC(N)=O)C(=O)N[C@@H](CC(=O)O)C(=O)N[C@@H](Cc1ccccc1)C(=O)N[C@H](C(=O)N[C@@H](CCC(N)=O)C(=O)N[C@@H](Cc1c[nH]c2ccccc12)C(=O)N[C@@H](CC(C)C)C(=O)N[C@@H](CCSC)C(=O)N[C@@H](CC(N)=O)C(=O)N[C@H](C(=O)N[C@@H](CCCCN)C(N)=O)[C@@H](C)O)C(C)C)C(=O)O)C(=O)O) [OXM416],1.4 nM,0.09,–,–,–,–
H[Ac4c]QGTFTSDK([γGlu-γGlu-Palmitoyl])SKYLDERRAQDFVQWLMNTK-NH2 (N-terminus assumed; SMILES CCCCCCCCCCCCCCCC(=O)N[C@@H](CCC(=O)N[C@@H](CCC(=O)NCCCC[C@H](NC(=O)[C@H](CC(=O)O)NC(=O)[C@H](CO)NC(=O)[C@@H](NC(=O)[C@H](Cc1ccccc1)NC(=O)[C@@H](NC(=O)CNC(=O)[C@H](CCC(N)=O)NC(=O)C1(NC(=O)[C@@H](N)Cc2c[nH]cn2)CCC1)[C@@H](C)O)[C@@H](C)O)C(=O)N[C@@H](CO)C(=O)N[C@@H](CCCCN)C(=O)N[C@@H](Cc1ccc(O)cc1)C(=O)N[C@@H](CC(C)C)C(=O)N[C@@H](CC(=O)O)C(=O)N[C@@H](CCC(=O)O)C(=O)N[C@@H](CCCNC(=N)N)C(=O)N[C@@H](CCCNC(=N)N)C(=O)N[C@@H](C)C(=O)N[C@@H](CCC(N)=O)C(=O)N[C@@H](CC(=O)O)C(=O)N[C@@H](Cc1ccccc1)C(=O)N[C@H](C(=O)N[C@@H](CCC(N)=O)C(=O)N[C@@H](Cc1c[nH]c2ccccc12)C(=O)N[C@@H](CC(C)C)C(=O)N[C@@H](CCSC)C(=O)N[C@@H](CC(N)=O)C(=O)N[C@H](C(=O)N[C@@H](CCCCN)C(N)=O)[C@@H](C)O)C(C)C)C(=O)O)C(=O)O) [OXM417],0.4 nM,0.15,–,–,–,–
HSQGTFTSDYSKYLDSRRAQDFVQWLMNTKRNRNNIAC (D-Ser at position 2; C2 = Cys(mPEG)20kDa at position 38; C-terminal amide) [OXM34],–,–,61,616,195,–
"HSQGTFTSDYSKYLDSRRAQDFVQWLMNTKRNRNNIAC (D-Ser at position 2; C3 = Cys(mPEG)240kDa (branched (mPEG)2, 40 kDa) at position 38; C-terminal amide) [OXM35]",–,–,71,142,716,–
HXQGTFTSDYSKYLDSRRAQDFVQWLMNTKRNRNNIAC (α-aminoisobutyric acid (Aib) at position 2; C1 = Cys(mPEG)5kDa at position 38; C-terminal amide) [OXM67],–,–,73,138,5.8,–
HXQGTFTSDYSKYLDSRRAQDFVQWLMNTKRNRNNIAC (Aib at position 2; C2 = Cys(mPEG)20kDa at position 38; C-terminal amide) [OXM68],–,–,58,601,8.3,–
"HXQGTFTSDYSKYLDSRRAQDFVQWLMNTKRNRNNIAC (Aib at position 2; C3 = Cys(mPEG)240kDa (branched (mPEG)2, 40 kDa) at position 38; C-terminal amide) [OXM69]",–,–,46,> 1000,6,–
HXQGTFTSDYSKYLDSRRAQDFVQWLMNTKRNRNNIAC (not fully specified; Aib at position 2; methionine sulfoxide at position 27; C3 = Cys(mPEG)240kDa (40 kDa) at position 38; C-terminal amide) [OXM99],–,–,66,> 1000,7.4,–
HXQGTFTSDYSKYLDSRRAQDFVQWLMNTKRNRNNIAC (Aib at position 2; methionine sulfoxide at position 27; C6 = Cys(mPEG)260kDa (60 kDa) at position 38; C-terminal amide) [OXM100],–,–,22,> 1000,22.5,–
H[Aib]QGTFTSDYSKYLDSRRAC((mPEG)2 40 kDa)DFVQWLMNTKRNRNNIA-NH2 [OXM103],–,–,75,203,6.2,–
H[Aib]QGTFTSDYSKYLDSRRAQC((mPEG)2 40 kDa)FVQWLMNTKRNRNNIA-NH2 [OXM105],–,–,21,648,28.5,–
HXQGTFTSDYSKYLDSRRAQDFVCWLMNTKRNRNNIA (Aib at position 2; C3 = Cys(mPEG)240kDa (40 kDa) at position 24; methionine sulfoxide at position 27; C-terminal amide) [OXM107],–,–,30,> 1000,29.7,–
H[Aib]QGTFTSDYC((mPEG)2 40 kDa)KYLDSRRAQDFVQWL[Met(O)]NTKRNRNNIA-NH2 [OXM121],–,–,–,–,> 125,–
H[Aib]QGTFTSDYSC((mPEG)2 40 kDa)YLDSRRAQDFVQWL[Met(O)]NTKRNRNNIA-NH2 [OXM124],–,–,–,–,> 100,–
HSQGTFTSDYSKYLDSRRAQDFVQWLMNTKRNRNNIAC (not fully specified; D-Ser at position 2; C4 = Cys(cholest-5-en-3-yl{[(2R)-3-amino-2-(amino)-3-oxopropyl]thio}acetate) at position 38; C-terminal amide) [OXM36],–,–,–,–,–,GCGR EC50 (human glucagon receptor [5]): 12.1 nM
HSQGTFTSDYSKYLDSRRAQDFVQWLMNTKRNRNNIAK (D-Ser at position 2; K(palmitoyl) at position 38; C-terminal amide) [OXM110],–,–,–,–,–,GCGR + 10% plasma (human glucagon receptor [5]): 6.9 nM; GCGR EC50 (human glucagon receptor [5]): 0.31 nM
